The assay deals with T1, Human ST2 (human, UniProt Q01638 19-328, limits assumed).
T1 construct: also called human ST2 protein; Interleukin 1 receptor-like 1
T1 sequence (looked up): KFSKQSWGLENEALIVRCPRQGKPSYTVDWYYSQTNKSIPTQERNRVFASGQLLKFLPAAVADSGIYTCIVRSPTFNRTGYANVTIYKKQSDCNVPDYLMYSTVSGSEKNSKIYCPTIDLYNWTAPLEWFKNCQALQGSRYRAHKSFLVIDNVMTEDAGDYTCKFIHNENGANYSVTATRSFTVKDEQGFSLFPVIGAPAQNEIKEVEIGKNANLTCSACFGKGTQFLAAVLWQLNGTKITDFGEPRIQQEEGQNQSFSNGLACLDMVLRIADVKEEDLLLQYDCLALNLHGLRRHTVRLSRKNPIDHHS
Nature of the assay: SPR (Carterra), antibody immobilized, ST2 analyte. The procedure: Binding of the reformatted human ST2 antibodies to the human and mouse ST2 proteins was evaluated by surface plasmon resonance (SPR), using a high throughput antibody screening and characterization platform from Carterra (Salt Lake City, Utah).

B1: Human ST2 IgG1 Antibody 72 (antibody, V domains shown)
VH: EVQLLESGGGLVQPGGSLRLSCAASGFTFSSYGMSWVRQAPGKGLEWLAVIWSDGGHKYYADSVKGRFTISRDNSKNTLYLQMNSLRAEDTAVYYCAREVRGWFDPWGQGTLVTVSS
VL: DIQMTQSPSSLSASVGDRVTITCRASENIGTWLAWYQQKPGKAPKLLIYKASSLDSGVPSRFSGSGSGTDFTLTISSLQPEDFATYYCQQSYSTPYTFGQGTKLEIKR
notes: IgG1; also called ST2 Antibody 72
As usually defined, the Kd is the concentration at which binding is half-saturated. A lower Kd goes with higher affinity. One may read the koff as the rate constant with which the complex falls apart. Low values mean a long-lived complex, high ones a short-lived complex. The kon is the rate constant with which the complex forms. Read a low kon as slower complex formation. Consider B1, for which the Kd came to 335 nM, the koff worked out at 0.082 s⁻¹ and the kon stood at 240000 M⁻¹ s⁻¹.

B2: Human ST2 IgG1 Antibody 74 (antibody, V domains shown)
VH: EVQLLESGGGLVQPGGSLRLSCAASGFTFSSYWMSWVRQAPGKGLEWVSSISSSSSYIYYADSVKGRFTISRDNSKNTLYLQMNSLRAEDTAVYYCARDQGWFDPWGQGTLVTVSS
VL: DIQMTQSPSSLSASVGDRVTITCRASRAIGNNLSWYQQKPGKAPKLLIYTASSLQSGVPSRFSGSGSGTDFTLTISSLQPEDFATYYCQQSYSTPYTFGQGTKVEIKR
notes: IgG1; also called ST2 Antibody 74
Turning to B2, binding was characterised by a dissociation constant (Kd) of 60 nM, the koff turned out to be 0.012 s⁻¹ and the on-rate (kon) was found to be 200000 M⁻¹ s⁻¹.

B3: Human ST2 IgG1 Antibody 77 (antibody, V domains shown)
VH: QVQLVQSGAEVKKPGSSVKVSCKASGYTFSDHYIHWVRQAPGQGLEWMGGIIPILGTANYAQKFQGRVTITADESTSTAYMELSSLRSEDTAVYYCATDIAVAGTGFDYWGQGTLVTVSS
VL: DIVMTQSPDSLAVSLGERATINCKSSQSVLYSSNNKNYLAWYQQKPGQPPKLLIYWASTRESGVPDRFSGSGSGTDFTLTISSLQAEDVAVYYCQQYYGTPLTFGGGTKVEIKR
notes: IgG1; also called ST2 Antibody 77
As to B3, binding was put at a Kd of 377 nM, the koff was 0.099 s⁻¹ and the kon amounted to 260000 M⁻¹ s⁻¹.

B4: Human ST2 IgG1 Antibody 78 (antibody, V domains shown)
VH: EVQLLESGGGLVQPGGSLRLSCAASDFNFKNAWMSWVRQAPGKGLEWVSAISGNGAGTYYADSVKGRFTISRDNSKNTLYLQMNSLRAEDTAVYYCARVGETGAFDIWGQGTTVTVSS
VL: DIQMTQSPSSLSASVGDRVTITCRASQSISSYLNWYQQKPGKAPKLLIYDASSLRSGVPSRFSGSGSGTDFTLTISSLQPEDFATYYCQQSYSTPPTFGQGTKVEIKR
notes: IgG1; also called ST2 Antibody 78
Turning to B4, the Kd stood at 154 nM, the koff was determined as 0.082 s⁻¹ and the kon was 530000 M⁻¹ s⁻¹.

B5: Human ST2 IgG1 Antibody 81 (antibody, V domains shown)
VH: EVQLLESGGGLVKPGGSLRLSCAASGFTFSSYWMSWVRQAPGKGLEWVSSISSSGNYMYYAVSVKGRFTISRDDSKNTLYLQMNSLKTEDTAVYYCATETYSYSSMDVWGQGTTVTVSS
VL: DIQMTQSPSSLSASVGDRVTITCRASQSISSYLNWYQQKPGKAPKLLIYDASNLETGVPSRFSGSGSGTDFTLTISSLQPEDFATYYCQQSYGTPLTFGGGTKVDIKR
notes: IgG1; also called ST2 Antibody 81
The molecule B5 returned a Kd of 126 nM, a koff of 0.026 s⁻¹ and a kon of 200000 M⁻¹ s⁻¹.

B6: Human ST2 IgG1 Antibody 82 (antibody, V domains shown)
VH: QVQLVQSGAEVKKPGASVKVSCKASGYTFTENEMHWVRQAPGQGLEWMGWISAYNGDTNYAQKFQGRVTMTRDTSTSTVYMELSSLRSEDTAVYYCAKEVRLDDDEMWYFDLWGRGTLVTVSS
VL: DIQMTQSPSSLSASVGDRVTITCRASQDINNFLVWYQQKPGKAPKLLIYDASNLETGVPSRFSGSGSGTDFTLTISSLQPEDFATYYCQQAYSFPLTFGGGTKVEIKR
notes: IgG1; also called ST2 Antibody 82
Molecule B6 displayed a dissociation constant Kd of 204 nM, a koff of 0.003 s⁻¹ and a kon of 15000 M⁻¹ s⁻¹.

B7: Human ST2 IgG1 Antibody 88 (antibody, V domains shown)
VH: EVQLLESGGGLVQPGGSLRLSCAASGFTFSSYWMSWVRQAPGKGLEWVSSISSSGGYLYYADSVKGRFTISRDNSKNTLYLQMNSLRAEDTAVYYCARDWGLTPDYWGQGTLVTVSS
VL: not shown
notes: IgG1; also called ST2 Antibody 88
With B7, binding was put at a Kd of 543 nM, the koff is 0.13 s⁻¹ and the kon is 240000 M⁻¹ s⁻¹.

B8: Human ST2 IgG1 Antibody 76 (antibody, V domains shown)
VH: QVQLVQSGAEVKKPGSSVKVSCKASGYTFTDYYMHWVRQAPGQGLEWMGVIIPVLGAAKYAQKFQGRVTITADESTSTAYMELSSLRSEDTAVYYCAKGWGAFDIWGQGTMVTVSS
VL: EIVMTQSPATLSVSPGERATLSCRASQSVSSYLAWYQQKPGQAPRLLIYGASTRASGIPARFSGSGSGTEFTLTISSLQSEDFAVYYCQQYYSYPWTFGQGTKVEIKR
notes: IgG1; also called ST2 Antibody 76
B8 yielded a Kd of 133 nM, a koff of 0.11 s⁻¹ and a kon of 820000 M⁻¹ s⁻¹.

B9: Human ST2 IgG1 Antibody 86 (antibody, V domains shown)
VH: QVQLVQSGAEVKKPGSSVKVSCKASGGTFSNYAISWVRQAPGQGLEWMGGIIPIFGTANYAQKFQGRVTITADESTSTAYMELSSLRSEDTAVYYCAKDLGGWFNLFDPWGQGTLVTVSS
VL: EIVMTQSPATLSVSPGERATLSCRASQGVSSYLAWYQQKPGQAPRLLIYGASTRATGIPARFSGSGSGTEFTLTISSLQSEDFAVYYCQQYRSFPLTFGGGTKVEIKR
notes: IgG1; also called ST2 Antibody 86
In turn, B9 gave a Kd of 41 nM, a koff of 0.029 s⁻¹ and a kon of 720000 M⁻¹ s⁻¹.

B10: Human ST2 IgG1 Antibody 73 (antibody, V domains shown)
VH: EVQLLESGGGLVQPGGSLRLSCAASGFAFSSHWMHWVRQAPGKGLEWVAVISYDGSNKYYADSVKGRFTISRDNSKNTLYLQMNSLRAEDTAVYYCARDRGMIDYWGQGTLVTVSS
VL: DIQMTQSPSSLSASVGDRVTITCRASQGIGSWLAWYQQKPGKAPKLLIHAATKLQTGVPSRFSGSGSGTDFTLTISSLQPEDFATYYCQQSYSTPFTFGPGTKVDIKR
notes: IgG1; also called ST2 Antibody 73
As to B10, the Kd was 603 nM, the koff is 0.085 s⁻¹ and the kon is 140000 M⁻¹ s⁻¹.

B11: Human ST2 IgG1 Antibody 87 (antibody, V domains shown)
VH: QVQLVQSGAEVKKPGASVKVSCKASGYTFAGQYMHWVRQAPGQGLEWMGNINPSGGSTSYAQRFQGRVTMTRDTSTSTVYMELSSLRSEDTAVYYCARGDYSETYYYYMDVWGKGTTVTVSS
VL: DIQMTQSPSSLSASVGDRVTITCRASQHINSNLNWYQQKPGKAPKLLIYGASSLQSGVPSRFSGSGSGTDFTLTISSLQPEDFATYYCQQSYTTPFTFGPGTKVDIKR
notes: IgG1; also called ST2 Antibody 87
B11 showed a Kd of 642 nM, a koff of 0.018 s⁻¹ and a kon of 27000 M⁻¹ s⁻¹.

B12: Human ST2 IgG1 Antibody 85 (antibody, V domains shown)
VH: EVQLLESGGGLVQPGGSLRLSCAASGFSFSTYWMHWVRQAPGKGLEWVSGISGGGIYTYYADSVKGRFTISRDNSKNTLYLQMNSLRAEDTAVYYCASMTYGDYYGMDVWGQGTTVTVSS
VL: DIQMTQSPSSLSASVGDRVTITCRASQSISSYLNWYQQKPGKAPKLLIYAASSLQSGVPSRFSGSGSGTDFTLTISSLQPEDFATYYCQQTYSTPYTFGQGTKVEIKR
notes: IgG1; also called ST2 Antibody 85
Molecule B12 gave a Kd of 554 nM, a koff of 0.068 s⁻¹ and a kon of 120000 M⁻¹ s⁻¹.

B13: Human ST2 IgG1 Antibody 71 (antibody, V domains shown)
VH: QVQLVQSGAEVKKPGASVKVSCKASGGTFSNYGVSWVRQAPGQGLEWMGGINPSRGTTTYAQKFQGRVTMTRDTSTSTVYMELSSLRSEDTAVYYCAKGDIVVVPAAMFSLGPGYYYYMDVWGKGTTVTVSS
VL: DIQMTQSPSSLSASVGDRVTITCRASQSISSYLNWYQQKPGKAPKLLIYAASSLQSGVPSRFSGSGSGTDFTLTISSLQPEDFATYYCQQANSFPITFGQGTKLEIKR
notes: IgG1; also called ST2 Antibody 71
B13 had a Kd of 912 nM, a koff of 0.12 s⁻¹ and a kon of 140000 M⁻¹ s⁻¹.

B14: Human ST2 IgG1 Antibody 89 (antibody, V domains shown)
VH: EVQLLESGGGLVKPGGSLRLSCAASGFTFSSYWMSWVRQAPGKGLEWVSAISGTAINTYYADSVKGRFTISRDDSKNTLYLQMNSLKTEDTAVYYCARVRRDSSGGGAFDIWGQGTMVTVSS
VL: DIQMTQSPSSLSASVGDRVTITCRASQGISNNLNWYQQKPGKAPKLLIYAASSLQTGVPSRFSGSGSGTDFTLTISSLQPEDFATYYCQQSYSTPPTFGQGTKVEIKR
notes: IgG1; also called ST2 Antibody 89
Molecule B14 came in with a Kd of 102 nM, a koff of 0.024 s⁻¹ and a kon of 240000 M⁻¹ s⁻¹.

B15: Human ST2 IgG1 Antibody 83 (antibody, V domains shown)
VH: EVQLLESGGGLVKPGGSLRLSCAASGFTFSSYWMSWVRQAPGKGLEWVSAIGTAGDTYYPGSVKGRFTISRDDSKNTLYLQMNSLKTEDTAVYYCAILRRDKVWPFDYWGQGTLVTVSS
VL: DIQMTQSPSSLSASVGDRVTITCRASQSISSHLHWYQQKPGKAPKLLIYAASSLQSGVPSRFSGSGSGTDFTLTISSLQPEDFATYYCQQSYSSPVTFGGGTKVEIKR
notes: IgG1; also called ST2 Antibody 83
As to B15, the Kd came to 70 nM, the koff is 0.018 s⁻¹ and the kon was 260000 M⁻¹ s⁻¹.

B16: Human ST2 IgG1 Antibody 75 (antibody, V domains shown)
VH: EVQLLESGGGLVQHGGSLRLSCAASGFTFSSYWMSWVRQAPGKGLEWVSSISSSSSYIYYADSVKGRFTISRDNSKNTLYLQMNSLRAEDTAVYYCARDIAGYFDLWGRGTLVTVSS
VL: DIQMTQSPSSLSASVGDRVTITCQASQSISSYLNWYQQKPGKAPKLLIYAASSLQSGVPSRFSGSGSGTDFTLTISSLQPEDFATYYCQQGYLTPYTFGQGTKLEIKR
notes: IgG1; also called ST2 Antibody 75
In the case of B16, the Kd is 360 nM, the koff turned out to be 0.041 s⁻¹ and the kon came out at 120000 M⁻¹ s⁻¹.

B17: Human ST2 IgG1 Antibody 80 (antibody, V domains shown)
VH: QVQLVQSGAEVKKPGSSVKVSCKASGGTFSSYAISWVRQAPGQGLEWMGGIIPIFGTANYAQKFQGRVTITADESTSTAYMELSSLRSEDTAVYYCARVMVAGTGYYFDYWGQGTLVTVSS
VL: DIVMTQSPLSLPVTPGEPASISCRSSQSLLHSNGYNYLDWYLQKPGQSPQLLIYGASSLQSGVPDRFSGSGSGTDFTLKISRVEAEDVGVYYCMQGLHTPPTFGQGTKLEIKR
notes: IgG1; also called ST2 Antibody 80
B17: the Kd amounted to 842 nM, the koff stood at 0.056 s⁻¹ and the kon came out at 67000 M⁻¹ s⁻¹.

B18: Human ST2 IgG1 Antibody 84 (antibody, V domains shown)
VH: QVQLVQSGAEVKKPGSSVKVSCKASGGTFSSYALSWVRQAPGQGLEWMGGIIPIFGTANYAQKFQGRVTITADESTSTAYMELSSLRSEDTAVYYCARAAAAGTAWYFDLWGRGTLVTVSS
VL: not shown
notes: IgG1; also called ST2 Antibody 84
In turn, B18 returned a Kd of 125 nM, a koff of 0.0019 s⁻¹ and a kon of 15000 M⁻¹ s⁻¹.

B19: Human ST2 IgG1 Antibody 90 (antibody, V domains shown)
VH: QVQLVQSGAEVKKPGSSVKVSCKASGYTFSDFSIHWVRQAPGQGLEWMGGMLPISHIAHYARKFQGRVTITADESTSTAYMELSSLRSEDTAVYYCARGGSSGWFEVWGQGTTVTVSS
VL: DIVMTQSPLSLPVTPGEPASISCRSSQSLLHSNGYNYLDWYLQKPGQSPQLLIYAASTLQSGVPDRFSGSGSGTDFTLKISRVEAEDVGVYYCMQGAHWPPTFGQGTKLEIKR
notes: IgG1; also called ST2 Antibody 90
In turn, B19 came in with a Kd of 970 nM, a koff of 0.17 s⁻¹ and a kon of 170000 M⁻¹ s⁻¹.
